# Entries after “also recorded” stand apart in the source; their conditions may differ.
# B1: L494P: P. alba IspS variant L494P; pDW101, strain DW399, SEQ ID NO: 69 (protein)
# chain: MEARRSANYEPNSWDYDYLLSSDTDESIEVYKDKAKKLEAEVRREINNEKAEFLTLLELIDNVQRLGLGYRFESDIRGALDRFVSSGGFDAVTKTSLHGTALSFRLLRQHGFEVSQEAFSGFKDQNGNFLENLKEDIKAILSLYEASFLALEGENILDEAKVFAISHLKELSEEKIGKELAEQVNHALELPLHRRTQRLEAVWSIEAYRKKEDANQVLLELAILDYNMIQSVYQRDLRETSRWWRRVGLATKLHFARDRLIESFYWAVGVAFEPQYSDCRNSVAKMFSFVTIIDDIYDVYGTLDELELFTDAVERWDVNAINDLPDYMKLCFLALYNTINEIAYDNLKDKGENILPYLTKAWADLCNAFLQEAKWLYNKSTPTFDDYFGNAWKSSSGPLQLVFAYFAVVQNIKKEEIENLQKYHDTISRPSHIFRLCNDLASASAEIARGETANSVSCYMRTKGISEELATESVMNLIDETWKKMNKEKLGGSPFAKPFVETAINLARQSHCTYHNGDAHTSPDELTRKRVLSVITEPILPFERENLYFQGLEHHHHHH
# B2: T536F: P. alba IspS variant T536F; pDW87, strain DW363, SEQ ID NO: 95 (protein)
# chain: MEARRSANYEPNSWDYDYLLSSDTDESIEVYKDKAKKLEAEVRREINNEKAEFLTLLELIDNVQRLGLGYRFESDIRGALDRFVSSGGFDAVTKTSLHGTALSFRLLRQHGFEVSQEAFSGFKDQNGNFLENLKEDIKAILSLYEASFLALEGENILDEAKVFAISHLKELSEEKIGKELAEQVNHALELPLHRRTQRLEAVWSIEAYRKKEDANQVLLELAILDYNMIQSVYQRDLRETSRWWRRVGLATKLHFARDRLIESFYWAVGVAFEPQYSDCRNSVAKMFSFVTIIDDIYDVYGTLDELELFTDAVERWDVNAINDLPDYMKLCFLALYNTINEIAYDNLKDKGENILPYLTKAWADLCNAFLQEAKWLYNKSTPTFDDYFGNAWKSSSGPLQLVFAYFAVVQNIKKEEIENLQKYHDTISRPSHIFRLCNDLASASAEIARGETANSVSCYMRTKGISEELATESVMNLIDETWKKMNKEKLGGSLFAKPFVETAINLARQSHCTYHNGDAHTSPDELTRKRVLSVIFEPILPFERENLYFQGLEHHHHHH
# Key:
# [1] = DMAPP assay of site evaluation library (SEL) lysates with ELISA protein quantitation: specific activity ranked as performance index; format: biochemical; details: for isoprene synthase activity of variants relative to parent, in words: SEL analysis of P. alba IspS; for performance index: primary SEL screen, activity on DMAPP per unit weight relative to the parental molecule (parent = 1)
# Outline: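 Induced E. coli cell pellets lysed in 50 mM Tris pH 8, 25 mM MgCl2, lysozyme, DNase I; 10-fold diluted supernatant reacted with DMAPP (20 mM working stock in 0.1 M phosphate pH 8.2) at 25° C for 30 min, stopped at 70° C for 12 min. Isoprene in headspace quantified by GC-MS.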
# [2] = Isoprene synthase activity vs temperature (DMAPP assay, 25 to 80 C); format: biochemical; details: FIG. 58
# Method: The activity of wild type IspS and variants IspS-L494P and IspS-T536F was measured across a spectrum of temperatures. Individual DMAPP assays were performed at 5° C. intervals from 25° C. to 80° C. by incubating the vials in a pre-heated water bath.
# The following reaction mixture was used for the DMAPP assay: 25 μL purified protein, 5 μL MgCl2 (1 M), 5 μL DMAPP (100 mM), and 65 μL 100 mM Tris pH 8, 100 mM NaCl for a total volume of 100 μL. The reaction is performed at the specified temperature for 15 minutes in a gas tight 1.8 mL GC tube. Reactions are terminated by the addition of 100 μL 500 mM EDTA (pH 8). The amount of isoprene produced was measured by GC/MS.
# The analysis was performed using an Agilent 6890 GC/MS system interfaced with a CTC Analytics CombiPAL autosampler operating in headspace mode. An Agilent HP-5MS GC/MS column (30 m×0.25 mm; 0.25 μm film thickness) was used for separation of analytes. The sampler was set up to inject 500 μL of headspace gas. The GC/MS method utilized helium as the carrier gas at a flow of 1 ml/min. The injection port was held at 250° C. with a split ratio of 50:1. The oven temperature was held at 37° C. for the […] duration of the analysis. The Agilent 5793N mass selective detector was run in single ion monitoring (SIM) mode on m/z 67. The detector was switched off from 1.4 to 1.7 minutes to allow the elution of permanent gases.
Molecule,"isoprene synthase activity of variants relative to parent, in words [1]",performance index [1],"temperature activity ratio curve (specific activity at a given temperature / at 35° C.), in words [2]"
B1,improved activity; also recorded: high performing,2.64,–
B2,improved isoprene synthase activity; also recorded: high performing,3.60,increased activity and thermostability

# — patent publication US9175313B2, “Three-dimensional structure of isoprene synthase and its use thereof for generating variants” (Danisco US Inc., priority 2009, dated 2015)
